# Assay results as given in patent US20130130347, “CONSTRUCTS AND METHODS FOR THE ASSEMBLY OF BIOLOGICAL PATHWAYS” (CORNELL UNIVERSITY, published 2013).
# B1: Zif268 binding site DNA (dsDNA)
# DNA 1: GCGTGGGCG
# DNA 2: CGCCCACGC
# B2: PBSII binding site DNA (dsDNA)
# DNA 1: GTGTGGAAA
# DNA 2: TTTCCACAC
# B3: ZFa binding site DNA (dsDNA)
# DNA 1: GTCGATGCC
# DNA 2: GGCATCGAC
# B4: ZFb binding site DNA (dsDNA)
# DNA 1: GCGGCTGGG
# DNA 2: CCCAGCCGC
# B5: ZFc binding site DNA (dsDNA)
# DNA 1: GAGGACGGC
# DNA 2: GCCGTCCTC
# B6: DNA scaffold with Zif268 and PBSII sites, 2-bp spacer (dsDNA)
# DNA 1: GTTACTACTCGAGCGATCGGAATTCGAAGGGGAATTGCTGCTGCGGTGTTTGGATGGAGCGTGGGCGGGGTGTGGAAATTGATGCTGCATTGACCACCCAAGACGACTGCAGTACA
# DNA 2: TGTACTGCAGTCGTCTTGGGTGGTCAATGCAGCATCAATTTCCACACCCCGCCCACGCTCCATCCAAACACCGCAGCAGCAATTCCCCTTCGAATTCCGATCGCTCGAGTAGTAAC
# B7: scrambled control scaffold (dsDNA)
# DNA 1: GTTACTACTCGAGCGGAATTCATCTAAGTTACTAGAGTCCTTATAGTTGACTCTTGTTCCACATTCTACTGTACACGCTCAGTACTCGAGCATACCTATCTCCTGCAGTACA
# DNA 2: TGTACTGCAGGAGATAGGTATGCTCGAGTACTGAGCGTGTACAGTAGAATGTGGAACAAGAGTCAACTATAAGGACTCTAGTAACTTAGATGAATTCCGCTCGAGTAGTAAC
# Tests used:
# cYFP-Zif268 chimera [1] = test: EMSA; full oligo sequence not given; text states low nanomolar affinity without values
# PBSII-nYFP chimera [2] = biological target: PBSII-nYFP chimera (artificial); test: as above; settings: tags: nYFP C-terminal fusion, His
# Chain of PBSII-nYFP chimera (artificial) (chain, as listed by the source mutant): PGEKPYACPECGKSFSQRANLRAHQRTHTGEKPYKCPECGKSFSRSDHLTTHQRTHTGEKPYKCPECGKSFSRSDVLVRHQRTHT
# MBP-ZFa (OZ052) = MBP-ZFa (OZ052) (artificial); test: EMSA; biotinylated oligo, flanks not given; chimera-DNA dimer also seen; text states low nanomolar affinity without values; settings: label: 5'-biotin
# Chain of MBP-ZFa (OZ052) (artificial) (chain, as listed by the source): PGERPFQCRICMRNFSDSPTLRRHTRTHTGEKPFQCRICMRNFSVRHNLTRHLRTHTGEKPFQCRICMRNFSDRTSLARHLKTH
# Method: (§1) From this analysis, the amount of ZF-chimera present in cells was estimated at approximately 5000 per cell or 8 μM. The plasmid concentration in cells was determined to be approximately 127 per cell or […]. These values were used to design/select ZF domains with appropriate affinity and to design DNA scaffolds with enough binding sites to accommodate all ZF fusion proteins. FIG. 4B is a western blot analysis comparing the soluble and insoluble protein levels of unmodified MBP with MBP fused to 1, 2, 3 or 4 fingers as indicated. Flow cytometric analysis of cellular fluorescence levels of superfolder green fluorescent protein (sfGFP) fused to increasing number of fingers as indicated (FIG. 4B; right). FIG. 4C is an EMSA of purified PBSII-nYFP and cYFP-Zif268 chimeras using […] DNA with PBSII or Zif268 binding sites. MW, molecular weight ladder. Arrow indicates chimera-DNA complexes. EMSA of purified MBP-ZFa, MBP-ZFb and MBP-ZFc chimeras using varying amounts of biotinylated DNA containing the ZFa, ZFb or ZFc binding site is shown in FIG. 4D. Detection of DNA and DNA-protein complexes was with streptavidin-HRP against biotinylated DNA. […]
# (§2) For EMSA with PBSII and Zif268, 1 μg of the purified PBSII-nYFP and cYFP-Zif268 chimeras were incubated with 375 μM scaffold DNA for 3 h. […] Nucleic acid-protein complexes were detected under UV light. […]
# MBP-ZFb (OZ300) = MBP-ZFb (OZ300) (artificial); test: EMSA; biotinylated oligo, flanks not given; text states low nanomolar affinity without values; settings: label: 5'-biotin
# Chain of MBP-ZFb (OZ300) (artificial) (chain, as listed by the source): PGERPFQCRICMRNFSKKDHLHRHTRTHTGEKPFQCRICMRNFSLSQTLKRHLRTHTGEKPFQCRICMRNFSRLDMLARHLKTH
# Method: as §1, §2
# MBP-ZFc (OZ076) = MBP-ZFc (OZ076) (artificial); test: as above; settings: label: 5'-biotin
# Chain of MBP-ZFc (OZ076) (artificial) (chain, as listed by the source): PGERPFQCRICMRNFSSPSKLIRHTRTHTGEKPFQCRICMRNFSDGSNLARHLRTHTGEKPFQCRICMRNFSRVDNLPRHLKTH
# Method: as §1, §2
# PBSII-nYFP chimera [3] = biological target: PBSII-nYFP chimera (artificial); test: SPR; injected as mixture with cYFP-Zif268, 5 uM; same SPR buffer with 0.1 mM ZnCl2; settings: tags: nYFP C-terminal fusion, His
# Method: Proteins that were directly dialyzed against buffer A (see above) were used in surface plasmon resonance (SPR) experiments. Proteins were further concentrated using Amicon Ultra-15 Centrifugal Filter Unit with Ultracel-10 membrane. The experiments were conducted using T100 apparatus (GE Healthcare, Biacore) and streptavidin-coated sensor chip (SA). […] The biotinylated single-stranded anchor DNA (5′-CGCTCGAGTAGTAAC-3′-Biotin; SEQ ID NO: 41) was immobilized on all four flow-cells. The anchor allowed capture of the double-stranded DNA molecule with complementary overhang. A DNA scaffold (5′-[…]-3′; SEQ ID NO: 42) was used that contained ZF binding sites for Zif268 and PBSII (underlined), respectively. Control DNA (5′-[…]-3′; SEQ ID NO: 43) contained a scrambled version of the scaffold and was used to correct the responses for unspecific binding of ZF chimeras. The control DNA was immobilized in the first flow-cell, while the DNA scaffold was used in the second flow cell. Typically, immobilization of control and scaffold DNA used 0.5 μM DNA and was performed for 5 min at 5 μl/min. Protein binding was measured following injection of appropriate concentration of PBSII-nYFP and/or cYFP-Zif268 chimeras in the SPR buffer. The surface of the sensor chip was regenerated by two 30 s injections of 50 mM NaOH that removed the DNA from the anchor.
# cYFP-Zif268 chimera [4] = test: SPR; 20 mM HEPES pH 7.4, 150 mM NaCl, 2 mM DTT, 0.1 mM ZnCl2; 1 and 5 uM protein
# cYFP-Zif268 chimera [5] = test: SPR; random scaffold reference, 1 uM protein; used to correct for unspecific binding
binder,measurement,setting,value
B1,binding result,cYFP-Zif268 chimera [1],binds
B2,binding result,PBSII-nYFP chimera [2],binds
B3,binding result,MBP-ZFa (OZ052),binds
B4,binding result,MBP-ZFb (OZ300),binds
B5,binding result,MBP-ZFc (OZ076),binds
B6,binding result,PBSII-nYFP chimera [3],binds
same,binding result,cYFP-Zif268 chimera [4],binds
B7,binding result,cYFP-Zif268 chimera [5],no binding
